Here are results for twelve compounds from patent publication US20160287732A1, “TUMOR THERAPY BY BISPECIFIC ANTIBODY PRETARGETING” (IMMUNOMEDICS, INC., priority 2015, published 2016).

Where two headings read alike, the source gives them in different places. Numbered stars: 1 amine (or outer) side, 2 acyl side, 3 side chain; on linkers, the order of the positions; unused ones are H or OH. Square brackets hold non-standard residues; d marks the D form. Side chains are listed from the residue outwards. Ends that are not written are not given here. Peptide text beside a SMILES is read from it. * marks the point of attachment. X1 = CCc1c2c(nc3ccc(O)cc13)-c1cc3c(c(=O)n1C2)COC(=O)[C@@]3(CC)OC(=O)*; DOTA = O=C(O)CN1CCN(CC(=O)O)CCN(CC(=O)*)CCN(CC(=O)O)CC1; NH(2-(imidazol-4-yl)ethyl) = c1ncc(CCN*)[nH]1; Suc = O=C(CCC(=O)[*:2])[*:1]

The target in data set [1] is TF2 (human). Nature of the data set: in vitro binding assay, format and partner not described; TF2 (anti-CEA x anti-HSG) is the pretargeting antibody of the example.
Chain of TF2 (human) (heavy, as listed by the source, chain 1 of 2): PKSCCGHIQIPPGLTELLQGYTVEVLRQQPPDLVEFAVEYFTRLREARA
Chain of TF2 (human) (heavy, as listed by the source, chain 2 of 2): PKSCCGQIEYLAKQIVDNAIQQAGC
The test system of data set [2] is PKA. As to conditions: cited from earlier work.
The target in data set [3] is DDD of the RII form of PKA (Homo sapiens, UniProt P13861). The conditions noted are these: cited from earlier work.
Chain of DDD of the RII form of PKA (P13861 whole entry): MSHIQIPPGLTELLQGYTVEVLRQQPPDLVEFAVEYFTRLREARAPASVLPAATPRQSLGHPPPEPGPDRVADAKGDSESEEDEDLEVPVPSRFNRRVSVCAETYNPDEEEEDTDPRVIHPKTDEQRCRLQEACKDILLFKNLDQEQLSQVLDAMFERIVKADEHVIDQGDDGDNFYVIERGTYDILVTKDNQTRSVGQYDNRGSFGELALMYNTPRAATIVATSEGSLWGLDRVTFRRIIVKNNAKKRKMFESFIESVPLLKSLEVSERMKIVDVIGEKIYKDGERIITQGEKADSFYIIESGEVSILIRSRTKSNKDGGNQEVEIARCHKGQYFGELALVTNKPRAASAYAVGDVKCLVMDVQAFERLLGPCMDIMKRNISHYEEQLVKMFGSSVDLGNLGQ
The subject of data set [4] is human colorectal adenocarcinoma xenografts (LS 174T). Nature of the data set: Pretargeting study with ^125I-TF2 and ^99mTc-IMP-245 in mice bearing s.c. LS 174T xenografts. It is filed as in vivo, female athymic nude mice. As to conditions: pretargeted with TF2. The method, then:
A pretargeting study was performed with TF2 in female athymic nude mice bearing s.c. human colorectal adenocarcinoma xenografts (LS 174T). Cells were expanded in tissue culture until enough cells had been grown to inject 55 mice s.c. with 1×10^7 cells per mouse. After one week, tumors were measured and mice assigned to groups of 5 mice per time-point. The mean tumor size at the start of this study was 0.105±0.068 cm^3. Twenty mice were injected with 80 μg ^125I-TF2 (500 pmoles, 2 μCi) and 16 h later administered ^99mTc-IMP-245 (40 μCi, 92 ng, 50 pmoles). The mice were sacrificed and necropsied at 0.5, 1, 4, and 24 h post-peptide injection. In addition, 3 mice of the 24 h time-point groups were imaged on a γ-camera at 1, 4, and 24 h post-injection. As a control, 3 additional mice received only ^99mTc-IMP-245 (no pretargeting) and were imaged at 1, 4, and 24 h post-injection, before being necropsied after the 24 h imaging session. Tumor as well as various tissues were removed and placed in a γ-counter to determine % ID/g in tissue at each time-point.

A short description of data set [5]: ^111In IMP 453 biodistribution in scLS174T tumor-bearing nude mice, with or without TF2 pretargeting. As to conditions: nude, mouse. It counts as in vivo. The text has this: (§1) The higher uptake in the kidneys of pretargeted mice is probably due the presence of bispecific antibody in the blood or kidney. […] In the absence of TF2, there was little uptake of labeled peptide into the tumor (Table 5).

Data set [6] concerns LS174 human colon cancer cell line. Described as above. It counts as in vivo. The conditions noted are these: for Tissue uptake, Kidney / Tissue uptake, Tumor: 3 Hr.
Source text: as §1

Data set [7] addresses RII isoform of PKA (Homo sapiens, UniProt P13861). The conditions noted are these: cited from earlier work.
The target in data set [8] is RIIα dimers (Homo sapiens, UniProt P13861). As to conditions: read-out: Affinity / binding constant; cited from earlier work.
Chain of RIIα dimers (P13861 whole entry): as above
A short description of data set [9]: in vivo. Set-up: species or system mice. The conditions noted are these: mouse. The method, then:
(§2) IMP288 was labeled with ^213Bi and in vitro binding characteristics (IC50, Kd, internalization) were compared with those of ^177Lu-IMP288. Tumor targeting of ^213Bi-IMP288 was studied in mice with s.c. LS174T xenografts that were pretargeted with TF2 bispecific antibody. Finally, the effect of ^213Bi-IMP288 (2.5-14 MBq) on the growth of LS174T tumors was assessed.

In data set [10] the test system is s.c. LS174T xenografts. Nature of the data set: in vivo. Set-up: species or system mice. As to conditions: mouse. The method, then:
as §2

The subject of data set [11] is LS174T tumors. Briefly: Effect of ^213Bi-IMP288 on growth of TF2-pretargeted LS174T tumors. It counts as in vivo, nude mice. The conditions noted are these: single injection; 5 nmol TF2 then 0.28 nmol ^213Bi-IMP288. The protocol: FIG. 5. Growth curves of subcutaneous LS174T xenografts in nude mice. Mice were injected with 5 nmol TF2 bispecific antibody, followed by a single injection of 0.28 nmol ^213Bi-IMP288 or PBS.
as §2

Setting [12] is: blood, pretargeted with TF2, read-out: Tissue uptake, Blood.
[13] abbreviates: kidney, pretargeted with TF2, read-out: Tissue uptake, Kidney.
Where [14] appears, read: large intestine, pretargeted with TF2, read-out: Tissue uptake, Lg. Int.
Setting [15] is: liver, pretargeted with TF2, read-out: Tissue uptake, Liver.
Setting [16] is: lung, pretargeted with TF2, read-out: Tissue uptake, Lung.
Where [17] appears, read: small intestine, pretargeted with TF2, read-out: Tissue uptake, Sm. Int.
[18] abbreviates: spleen, pretargeted with TF2, read-out: Tissue uptake, Spleen.
The mark [19] stands for this setting: stomach, pretargeted with TF2, read-out: Tissue uptake, Stomach.
[20] abbreviates: tumor, pretargeted with TF2, read-out: Tissue uptake, Tumor.

Usually tissue uptake stands for the percentage of the injected dose found per gram of tissue.

Chain of RII isoform of PKA (P13861 whole entry, canonical isoform): as the sequence (P13861 whole entry) above

As for IMP288 (peptide), the IQ in data set [1] amounted to 0.8 nM.

In the case of FEELAWKIAKMIWSDVFQQC [PV-38], the PKA isoform preference result in data set [2] is “higher affinity for RI”.

As for “PEDAELVRTSKRLVENAVLKAVQQY [AKAP7δ-L304T-pep]”, the “Affinity for the RII DDD sequence” value in data set [3] is reported as “particularly high affinities”.

For the compound “PEDAELVRLSKRLVENAVLKAVQQY [AKAP7δ-wt-pep]”, in data set [3], the “Affinity for the RII DDD sequence” value is listed as “particularly high affinities”.

Take “IMP-245: di-HSG-based peptide effector labeled with ^99mTc (FKYKK; not fully specified; also: labelled with 99mTc)”: the Tumor uptake in [4] (0.5 h post-peptide injection) was 22±3 % ID/g; in [4] (1 h post-peptide injection), 30±14 % ID/g; in [4] (4 h post-peptide injection) it was 25±4 % ID/g; in data set [4] (24 h post-peptide injection) it was 16±3 % ID/g.

Regarding DLIEEAASRIVDAVIEQVKAAGAY [Ht-31], the PKA isoform preference entry in [2] was “greater affinity for the RII isoform”.

For the compound `CCc1c2c(nc3ccc(O)cc13)-c1cc3c(c(=O)n1C2)COC(=O)[C@@]3(CC)OC(=O)SC[C@@H](NC(=O)CN1CCN(CC(=O)O)CCN(CC(=O)O)CCN(CC(=O)O)CC1)C(=O)N[C@H](C)C(=O)N[C@H](CCCCNC(=O)CNC(=O)CCC(=O)NCCc1cnc[nH]1)C(=O)N[C@H](Cc1ccc(O)cc1)C(=O)N[C@H](CCCCNC(=O)CNC(=O)CCC(=O)NCCc1cnc[nH]1)C(N)=O` [^111In IMP 453, metal not drawn] ({DOTA}-[dC](X1)[dA][dK]([Gly-Suc-NH(2-(imidazol-4-yl)ethyl)])[dY][dK]([Gly-Suc-NH(2-(imidazol-4-yl)ethyl)])-NH2), the tissue uptake at 3 h in data set [5] (setting [12]) worked out at 0.29 ± 0.03 %ID/g; in data set [5] (blood, without bsMAb, read-out: Tissue uptake, Blood), 0.24 ± 0.01 %ID/g; in [5] (setting [13]), 21.1 ± 4.14 %ID/g; in data set [5] (kidney, without bsMAb, read-out: Tissue uptake, Kidney), 9.97 ± 0.94 %ID/g; in data set [5] (setting [14]) it was 1.23 ± 1.41 %ID/g; in data set [5] (large intestine, without bsMAb, read-out: Tissue uptake, Lg. Int.), 0.52 ± 0.27 %ID/g. Besides, the tissue uptake at 3 h in data set [5] (setting [15]) was 0.56 ± 0.08 %ID/g; in data set [5] (liver, without bsMAb, read-out: Tissue uptake, Liver), 0.37 ± 0.18 %ID/g; in [5] (setting [16]), 0.56 ± 0.1 %ID/g; in data set [5] (lung, without bsMAb, read-out: Tissue uptake, Lung) it was 0.31 ± 0.14 %ID/g; in data set [5] (setting [17]), 0.68 ± 0.45 %ID/g; in [5] (small intestine, without bsMAb, read-out: Tissue uptake, Sm. Int.), 0.2 ± 0.1 %ID/g. The tissue uptake at 3 h in data set [5] (setting [18]) worked out at 0.37 ± 0.11 %ID/g; in data set [5] (spleen, without bsMAb, read-out: Tissue uptake, Spleen), 0.22 ± 0.07 %ID/g; in data set [5] (setting [19]), 0.41 ± 0.33 %ID/g; in [5] (stomach, without bsMAb, read-out: Tissue uptake, Stomach), 0.11 ± 0.06 %ID/g; in [5] (setting [20]), 28.3 ± 4.03 %ID/g; in [5] (tumor, without bsMAb, read-out: Tissue uptake, Tumor) it was 0.37 ± 0.09 %ID/g. Also, the tissue uptake at 24 h in data set [5] (setting [12]) was 0.09 ± 0.04 %ID/g; in [5] (setting [13]), 10 ± 2.45 %ID/g; in [5] (setting [14]) it was 0.23 ± 0.05 %ID/g; in data set [5] (setting [15]), 0.53 ± 0.19 %ID/g; in data set [5] (setting [16]), 0.18 ± 0.07 %ID/g; in data set [5] (setting [17]) it was 0.22 ± 0.09 %ID/g. In addition, the values for the tissue uptake at 24 h in data set [5] (setting [18]), in data set [5] (setting [19]) and in data set [5] (setting [20]) were 0.66 ± 0.89 %ID/g, 0.2 ± 0.12 %ID/g and 15.4 ± 1.18 %ID/g, respectively. In addition, the tissue uptake at 48 h was 0.04 ± 0.01 %ID/g in [5] (setting [12]); 7.11 ± 1.17 %ID/g in data set [5] (setting [13]); 0.16 ± 0.07 %ID/g in data set [5] (setting [14]); 0.36 ± 0.06 %ID/g in [5] (setting [15]); 0.14 ± 0.03 %ID/g in data set [5] (setting [16]); 0.12 ± 0.03 %ID/g in data set [5] (setting [17]). Moreover, the tissue uptake at 48 h in data set [5] (setting [18]) was 0.25 ± 0.07 %ID/g; in [5] (setting [19]) it was 0.07 ± 0.01 %ID/g; in data set [5] (setting [20]), 9.69 ± 1.97 %ID/g. The “Tissue uptake, Kidney” value in [6] (pretargeted with TF2) is 21 % ID/g; in data set [6] (without bsMAb), 9.97 % ID/g. Besides, the “Tissue uptake, Tumor” value in data set [6] (pretargeted with TF2) is listed as 28 % ID/g; in data set [6] (without bsMAb) it was “little uptake”. Besides, the “Initial kidney uptake eliminated” value in data set [6] (by 24 hr, pretargeted with TF2) stood at 50%. For the same compound, the Route of clearance result in data set [6] (pretargeted with TF2) was “Most of the peptide was cleared by urinary excretion”.

For “PEDAELVRLSKRDVENAVLKAVQQY [AKAP7δ-L308D-pep]”, the “Affinity for the RII DDD sequence” value in data set [3] is “particularly high affinities”.

Turning to LEQYANQLADQIIKEATE [RIAD], the PKA isoform preference result in [2] was “higher affinity for RI”.

For the compound QIEYVAKQIVDYAIHQA [SuperAKAP-IS], in data set [7], the “Selectivity for the RII isoform of PKA compared with the RI isoform” value is on record as “five order of magnitude higher”.

As to QIEYLAKQIVDNAIQQA [AKAP-IS], the Kd in [8] is 0.4 nM. Further, in data set [3], the “Affinity for the RII DDD sequence” value is “particularly high affinities”.

In the case of `NC(=O)[C@@H](CCCCNC(=O)CNC(=O)CCC(=O)NCCc1c[nH]cn1)NC(=O)[C@@H](CCC(=O)O)NC(=O)[C@@H](CCCCNC(=O)CNC(=O)CCC(=O)NCCc1c[nH]cn1)NC(=O)[C@@H](Cc1ccc(O)cc1)NC(=O)CN1CCN(CC(=O)O)CCN(CC(=O)O)CCN(CC(=O)O)CC1` [^213Bi-IMP288, metal not drawn] ({DOTA}-[dY][dK]([Gly-Suc-NH(2-(imidazol-4-yl)ethyl)])[dE][dK]([Gly-Suc-NH(2-(imidazol-4-yl)ethyl)])-NH2), the tissue uptake at 0.25 h in data set [9] stood at 9.3 ± 2 %ID/g. For the same compound, the “Tumor targeting relative to ^177Lu-IMP288” value in data set [10] is “comparable”. Also, the Tumor growth entry in data set [11] is “significantly inhibited”.
